Results reported in paper PMC5993284, “Peptide inhibitors of the anaphase promoting-complex that cause sensitivity to microtubule poison” (PLoS ONE, 2018).
“Also recorded” adds a separate entry of the source.

B1: Cdc20-106 (P209Q): spindle checkpoint by-pass mutant allele of Cdc20, P209Q (protein)
chain: MPESSRDKGNAAISGNRSVLSIASPTKLNILSSDWSRNQGKVSKNSLKRSSSLNIRNSKRPSLQASANSIYSRPKITIGAPPLIRRDSSFFKDEFDAKKDKATFSAYSSRSYPTIGSESVVSQTSLSQPTTSREVDEQFTVAADRYIPILQGASQNKVDPETLHEALPPPNASPISHLRAQTKIVFKQNVAEACGLDMNKRILQYMPEQPKCSSLRQKSYIMKKRTHYSYQQEQKIPDLIKLRKINTNPERILDAPGFQDDFYLNLLSWSKKNVLAIALDTALYLWNATTGDVSLLTDFENTTICSVTWSDDDCHISIGKEDGNTEIWDVETMSLIRTMRSGLGVRIGSLSWLDTLIATGSRSGEIQINDVRIKQHIVSTWAEHTGEVCGLSYKSDGLQLASGGNDNTVMIWDTRTSLPQFSKKTHTAAVKALSWCPYSPNILASGGGQTDKHIHFWNSITGARVGSINTGSQVSSLHWGQSHTSTNGGMMNKEIVATGGNPENAISVYNYETKFKVAEVVHAHEARICCSQLSPDGTTLATVGGDENLKFYKIFDPRCTGRSREDGLMDGMLGLIGKEGCRTNDKENRSKNSSEIHTRRPSSTSQYLIR

Assays:
APC/C^Cdc20 = target: T1, APC/C^Cdc20 (Saccharomyces cerevisiae, UniProt P16522+P53886); test: biochemical; type: biochemical; conditions: 220 μM peptide; 35S-Pds1 substrate; time course 0-60 minutes; vs buffer only; n = 3
T1 construct: constructed within full-length Cdc20 by site-directed mutagenesis for analysis in vitro in the APC/C^Cdc20 assay; The APC/C was purified for enzyme assays from 1 mL of TAP-tagged Cdc16 yeast extract (SCSY51); made in house; host or cells: Cdc20: in vitro transcription/translation in rabbit reticulocyte lysate, used unpurified; APC/C: S. cerevisiae strain SCSY51 (Cdc16-TAP) extract, captured on IgG magnetic beads
Method in brief: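 Bead-bound TAP-Cdc16 yeast APC/C was mixed with IVT-made Cdc20 or Cdh1, pre-incubated 1 h at rt with checkpoint proteins or inhibitor peptides, plus pre-charged E1/E2/ATP/ubiquitin and ^35S-Pds1 in 20 mM HEPES pH 8.0, 100 mM NaCl, 1 mM MgCl2. Time points were stopped in SDS buffer and resolved by SDS-PAGE.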

APC/C^Cdh1 = APC/C^Cdh1 enzyme assay (ubiquitination of 35S-Pds1); type: biochemical, Saccharomyces cerevisiae; conditions: 220 μM peptide; 35S-Pds1 substrate; time course 0-60 minutes; vs buffer; n = 3
Method: Full-length, radio-labeled protein purifications were preformed as previously described. ^35S-Pds1 was prepared in a 500 μL IVT/T (In Vitro Transcription/Translation) reaction (Promega, USA), which contained 400 μL rabbit reticulocyte lysate, 20 μL of L-^35S-methionine (PerkinElmer, USA), 10 μg of plasmid DNA, and the remaining volume as nuclease-free ddH2O as recommended by the manufacturer. The reaction mixture was incubated for 2 hours at room temperature and gently mixed every 30 minutes. The reaction was added to pre-equilibrated IgG Sepharose beads (GE Healthcare, USA) in Bio-spin disposable chromatography columns (Bio-Rad, USA) for binding for 2 hours at room temperature. To ensure efficient binding, the beads were re-suspended several times every 30 minutes. After binding, the beads were washed with 5 mL wash buffer, containing 200 mM 4-(2-hydroxyethyl)-1-piperazineethanesulfonic acid (HEPES) at pH 8.0, 150 mM NaCl, 10% (v/v) glycerol, and 1 mM dithiothreitol (DTT). The ^35S-Pds1 was cleaved from the beads using TEV (Tobacco Etch Virus) protease in 1x TEV buffer (Invitrogen, USA) for 2 hours at room temperature, and the mixture was re-suspended several times every 30 minutes to promote efficient cleavage. The elution was collected and concentrated by employing an Amicon Ultra filter column (Millipore, Ireland). The concentrated ^35S-Pds1 was collected in a new tube, and stored at -20 °C.
(§1) The production of Cdc20 or Cdh1 was prepared by IVT/T reactions, where 16 μL of rabbit reticulocyte lysate, 20 μM L-methionine, 0.4 μg of plasmid DNA, and a volume of nuclease-free ddH2O for a total volume of 20 μL. This freshly synthesized Cdc20 or Cdh1 protein was used directly in all APC/C assays after a 1-hour synthesis reaction at room temperature. The APC/C was purified for enzyme assays from 1 mL of TAP-tagged Cdc16 yeast extract (SCSY51) where extract was mixed with 50 μL 50:50 slurry magnetic beads (Invitrogen, Norway) for 2 hours at 4 °C. After incubation, the beads were washed with 3 mL APC/C wash buffer (200 mM of HEPES, 150 mM of NaCl and 10% (v/v) of glycerol). APC/C bound to IgG magnetic beads was used directly in the enzyme assays.
APC/C assays were performed by adding the reaction contents in following order: 4.3 μL of QAH buffer, 20 μL of rabbit reticulocyte lysate containing Cdc20 or Cdh1 with or without an additional volume of recombinant checkpoint protein(s) or inhibitor peptides, 2.4 μL ubiquitin aldehyde (Boston Biochem, USA), APC/C, 16 μL pre-charged E1/E2/ATP/ubiquitin mix, and 13.3 μL of ^35S-Pds1 with QAH buffer (20 mM HEPES at pH 8.0, 100 mM NaCl, and 1 mM MgCl2). […]

APC/C [1] = test: Biotinylated peptide pull-down of purified APC/C, Western blot; type: binding, Saccharomyces cerevisiae; conditions: 20 μM biotinylated peptide, purified yeast APC/C, 1 h at 4 °C, streptavidin/Avidin beads, n = 3
Method: For APC/C purification, the APC/C which contain Cdc16-TAP-tag was isolated from 2 mL arrested yeast lysate by 120 μL IgG sepharose 6 Fast Flow beads (GE Healthcare Life Sciences) and incubate for 2 h at 4 °C on a rotating wheel. Beads were collected washed with 5 mL of APC/C wash buffer (200 mM Hepes pH8.0, 150 mM NaCl, 10% glycerol). Beads were resuspended in 150 μL of APC/C wash buffer contain 17.6 units of AcTEV protease (Invitrogen, Carlsbad, CA) at 4°C for 3 h with pipetting every 20 minutes. The purified APC/C was collected in the flow-through.
For APC/C binding assays, 20 μM biotinylated peptides or 20 μM peptides only as a negative control were incubated with purified APC/C and 100 μL APC/C wash buffer which contains phosphatase inhibitors (200 mM Hepes pH 8.0, 150 mM NaCl, 10% glycerol, 10 mM NaF, 1 mM NaVO4, 5 mM Na-pyrophosphate, 10 mM 2-glycerol phosphate) for 1 h at 4 °C. The mixtures were applied to 120 μL streptavidin beads (Dynabeads MyOne Streptavidin T1, Invitrogen) for 30 min at 4 °C with gentle pipetting every 10 min. Beads were washed with 1 mL of PBST buffer (Phosphate buffer saline and 0.1% Tween 20) three times SDS-PAGE protein sample was added directly. For APC/C binding competition experiments, the biotinylated peptide and 10-fold excess non-biotinylated peptides were added to purified APC/C at same time.
Free D-biotin in 10% DMSO was used for the control binding assays. For pre-coating APC/C with biotin, a modified APC/C purification was performed. 2 mL yeast lysate was incubated with 120 μL IgG Sepharose beads and additional 20.4 μM free biotin or non-biotin solvent as a positive control was added and samples were incubated for 2 h at 4 °C on a rotating wheel. Purified pre-coated APC/C was then removed from the IgG Sepharose following the standard purification procedure. 20 μM biotinylated peptides or 20 μM peptides as a negative control were incubated with pre-coated APC/C and 100 μL APC/C wash buffer which contain phosphatase inhibitors for 1 h at 4 °C. In addition, 20 μM biotinylated peptide was added and incubated with pre-coated APC/C in a non-biotin containing solvent as positive control. Pre-coated APC/C binding procedures were same as above. For pre-coating streptavidin beads with biotin, streptavidin beads were washed in the presence of 10.2 nmol/mL D-biotin in PBST buffer or non-biotin solvent as a positive control before use. Pre-coated streptavidin beads were incubated with purified APC/C-peptide complexes with an extra […] biotin for 30 minutes with gentle pipetting every 10 min at 4 °C.
Proteins were separated in SDS-PAGE gels and then were transferred to PVDF membrane. Blocking was performed by incubating samples in 20 mL PBST with 5% milk at 4 °C. Rabbit anti-tap (Thermo, CAB1001) was used as primary antibodies at a 1:1000 dilution and incubated for 2 hours at RT. Anti-rabbit HRP (Jackson, USA) was then used as secondary antibody at 1:5000 dilution and incubate for 1 hr at RT. Chemiluminescence signals were detected using an ImageQuant LAS 4000 (GE Healthcare Bio-Sciences, USA). For cell cycle timing Western blots anti-MYC and anti-Actin antibodies were employed (ABCAM, UK).

APC/C [2] = test: APC/C activity promoted by mutant Cdc20 alleles in the presence of Mad2 (Pds1 remaining); type: biochemical, Saccharomyces cerevisiae; conditions: 5.0 μM Mad2, n = 3
Method: as §1
APC/C assays were performed by adding the reaction contents in following order: 4.3 μL of QAH buffer, 20 μL of rabbit reticulocyte lysate containing Cdc20 or Cdh1 with or without an additional volume of recombinant checkpoint protein(s) or inhibitor peptides, 2.4 μL ubiquitin aldehyde (Boston Biochem, USA), APC/C, 16 μL pre-charged E1/E2/ATP/ubiquitin mix, and 13.3 μL of ^35S-Pds1 with QAH buffer (20 mM HEPES at pH 8.0, 100 mM NaCl, and 1 mM MgCl2). The E1/E2/ATP/ubiquitin mix were pre-charged by mixing 1 μL of E1 (Boston Biochem, USA), 1 μL of E2 (Boston Biochem, USA), 14.4 μL of ATP, 14.4 μL of […] (Boston Biochem, USA), and 17.2 μL of QAH buffer and incubated for 15 minutes at room temperature. Approximately 15 μL of samples were taken out at each time point, and the reaction was stopped by the addition of 2x protein sample buffer (125 mM Tris-HCl pH 6.8, 4% SDS, 20% glycerol, and 0.002% bromophenol blue, with 10% (final v/v) 2-mercaptoethanol added in fresh directly before use).
For inhibitor titration and time-course experiments, recombinant Bub3, Mad2, Mad3, and the Mad3-Bub3 complex were expressed and purified as previously described. Inhibitory peptides were synthesized by standard procedures and purified to 99% purity by HPLC (Kelowna International Scientific Inc., Taiwan). For inhibition of APC/C the co-factor Cdc20 or Cdh1 was made fresh by IVT/T, and pure recombinant checkpoint proteins or inhibitor peptides were added to the IVT/T mixture and incubated for an additional hour at room temperature. In titrations, a dilution series of the checkpoint protein(s) were made before incubation with the Cdc20 co-factor. […]
Our first goal was to measure the ability of the mutant alleles to promote APC/C activity in vitro. To ensure any observed change in APC/C activity reflected a change in function, and not a change in the amount of Cdc20 co-factor protein produced by IVT/T, the amounts of Cdc20 protein produced by IVT/T was measured, and no significant difference was observed (S4 Table). […]

Molecule	inhibition of APC/C^Cdc20 activity (in words) (APC/C^Cdc20)	inhibition of APC/C^Cdh1 activity (in words) (APC/C^Cdh1)	binding to APC/C (in words) (APC/C [1])	ability of mutant Cdc20 to promote APC/C activity in the presence of Mad2 (in words) (APC/C [2])	ability of mutant Cdc20 to promote APC/C activity in the presence of Mad2 (in words) (APC/C [2]; listed as Cdc20-106)
hp31: 39 amino acid residue human peptide derived from human p31^comet amino acid residues 219–258 (RNCGEDWFRPKLNYRVPSRGHKLTVTLSCGRPSIRTTAWE; UniProt Q15013 219-258, looked up, fragment)	inhibited both budding yeast APC/C^Cdc20; also recorded: inhibits yeast APC/C^Cdc20	inhibited both budding yeast APC/C^Cdc20 (Fig 13B) and APC/C^Cdh1; also recorded: inhibits yeast APC/C^Cdh1	bound to budding yeast APC/C directly; also recorded: can pull-down budding yeast APC/C at 20 μM peptide		
B1				consistently displayed APC activity in the presence of Mad2	promote APC/C activity at the same level as control reactions even in the presence of 5.0 μM Mad2
